These results are taken from paper PMC3994186 (Oncogene, 2013).

The experiment concerns the target T1, His-tagged RAD51C (human, UniProt O43502 1-376).
T1 sequence: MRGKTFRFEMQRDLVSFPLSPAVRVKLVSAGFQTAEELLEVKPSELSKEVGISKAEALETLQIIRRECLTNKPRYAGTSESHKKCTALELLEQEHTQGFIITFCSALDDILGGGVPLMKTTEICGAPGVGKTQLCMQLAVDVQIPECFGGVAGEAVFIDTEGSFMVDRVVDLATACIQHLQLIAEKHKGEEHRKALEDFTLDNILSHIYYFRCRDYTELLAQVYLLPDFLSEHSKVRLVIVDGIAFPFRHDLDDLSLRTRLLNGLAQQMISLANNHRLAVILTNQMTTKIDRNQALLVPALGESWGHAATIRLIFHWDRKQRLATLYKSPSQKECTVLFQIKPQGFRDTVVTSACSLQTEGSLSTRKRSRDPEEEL
Kind of experiment: pull-down.

B1: MBP fused to the WD40 domain of PALB2 (amino acids 859-1186), wild type (domain or fragment)
chain: SELKNPSGSCSVDVSAMFWERAGCKEPCIITACEDVVSLWKALDAWQWEKLYTWHFAEVPVLQIVPVPDVYNLVCVALGNLEIREIRALFCSSDDESEKQVLLKSGNIKAVLGLTKRRLVSSSGTLSDQQVEVMTFAEDGGGKENQFLMPPEETILTFAEVQGMQEALLGTTIMNNIVIWNLKTGQLLKKMHIDDSYQASVCHKAYSEMGLLFIVLSHPCAKESESLRSPVFQLIVINPKTTLSVGVMLYCLPPGQAGRFLEGDVKDHCAAAILTSGTIAIWDLLLGQCTALLPPVSDQHWSFVKWSGTDSHLLAGQKDGNIFVYHYS
Regarding B1, the binding result is given as “binds”.

B2: MBP-PALB2 WD40 domain T1030I (domain or fragment)
chain: SELKNPSGSCSVDVSAMFWERAGCKEPCIITACEDVVSLWKALDAWQWEKLYTWHFAEVPVLQIVPVPDVYNLVCVALGNLEIREIRALFCSSDDESEKQVLLKSGNIKAVLGLTKRRLVSSSGTLSDQQVEVMTFAEDGGGKENQFLMPPEETILTFAEVQGMQEALLGTIIMNNIVIWNLKTGQLLKKMHIDDSYQASVCHKAYSEMGLLFIVLSHPCAKESESLRSPVFQLIVINPKTTLSVGVMLYCLPPGQAGRFLEGDVKDHCAAAILTSGTIAIWDLLLGQCTALLPPVSDQHWSFVKWSGTDSHLLAGQKDGNIFVYHYS
For the molecule B2, the binding result is recorded as “binds”.

B3: MBP-PALB2 WD40 domain L939W (domain or fragment)
chain: SELKNPSGSCSVDVSAMFWERAGCKEPCIITACEDVVSLWKALDAWQWEKLYTWHFAEVPVLQIVPVPDVYNLVCVALGNWEIREIRALFCSSDDESEKQVLLKSGNIKAVLGLTKRRLVSSSGTLSDQQVEVMTFAEDGGGKENQFLMPPEETILTFAEVQGMQEALLGTTIMNNIVIWNLKTGQLLKKMHIDDSYQASVCHKAYSEMGLLFIVLSHPCAKESESLRSPVFQLIVINPKTTLSVGVMLYCLPPGQAGRFLEGDVKDHCAAAILTSGTIAIWDLLLGQCTALLPPVSDQHWSFVKWSGTDSHLLAGQKDGNIFVYHYS
Turning to B3, the binding result was “binds”.
